Measurements taken from publication PMC5646979 (Molecular Medicine Reports, 2017).

Molecular target: T1, Glu225Ala mutant RANKL (UniProt O35235 139-316, Glu225Ala)
T1 sequence (looked up): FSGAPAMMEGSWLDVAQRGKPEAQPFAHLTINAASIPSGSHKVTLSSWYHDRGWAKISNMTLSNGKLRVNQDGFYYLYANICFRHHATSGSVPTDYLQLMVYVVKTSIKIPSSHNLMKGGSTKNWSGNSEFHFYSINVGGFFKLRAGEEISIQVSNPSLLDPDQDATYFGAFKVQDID
Test: SPR

B1: Recombinant soluble RANK (receptor activator of nuclear factor κ-B) (receptor, murine, UniProt O35305 31-214, looked up)
chain: VTPPCTQERHYEHLGRCCSRCEPGKYLSSKCTPTSDSVCLPCGPDEYLDTWNEEDKCLLHKVCDAGKALVAVDPGNHTAPRRCACTAGYHWNSDCECCRRNTECAPGFGAQHPLQLNKDTVCTPCLLGFFSDVFSSTDKCKPWTNCTLLGKLEAHQGTTESDVVCSSSMTLRRPPKEAQAYLPS
- fold decrease of binding affinity against wild-type RANKL: 100 fold
